Experimental data: the supplement of paper PMC10567573
± gives the standard deviation.

Test: protein stability index of a GFP-peptide fusion (GPS, HEK-293T) (PSI 1-6); higher = more stable
[1] = treatment: DMSO, c terminus: a fixed tail appended
[2] = treatment: MLN4924 1 uM, 8 h, c terminus: a fixed tail appended
[3] = treatment: DMSO, c terminus: native
[4] = treatment: MLN4924 1 uM, 8 h, c terminus: native
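Also: 24-mer peptide tiles fused after GFP, lentivirally expressed, FACS-sorted into six equal bins by GFP/DsRed ratio, decoded by Illumina sequencing, PSI is the read-weighted mean bin number.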

Sequence | protein stability index [1] | protein stability index [2] | protein stability index [3] | protein stability index [4]
QRVEQLTRDLAGLRQFFKQLPSPP [CEBPD] | 2.71 ± 0.34 | 2.82 ± 0.29 | – | –
QSETQGLEGAQAPLAVEEDASSST [MAGEA10] | 5.64 ± 0.26 | 5.52 ± 0.33 | – | –
QSNVLCSIFGICMVFSGLCPLLLG [PTGFR] | 2.75 ± 0.23 | 2.63 ± 0.34 | – | –
QSPDEKPLVALDTDSDDDFDMSRY [FAM219A] | 5.44 ± 0.26 | 5.46 ± 0.23 | – | –
QVDGGANFSVDRWERKEGGGGISC [CPOX] | 4.4 ± 0.12 | 4.48 ± 0.21 | – | –
QVLLKGMTSISLPSVMDPGAFETV [ZBTB22] | 2.61 ± 0.36 | 2.84 ± 0.37 | – | –
QVLNAIEAYTEHRPEITSRAINLL [ZER1] | 2.56 ± 0.27 | 2.66 ± 0.32 | – | –
QVLSAKERHLVEIKQKLGMNLMNE [TPD52L1] | 3.04 ± 0.12 | 3.04 ± 0.13 | – | –
QVVGQVNVEMDATPGIDLTRVLAE [KRT13] | 4.07 ± 0.32 | 4.15 ± 0.2 | – | –
QWWNAVFIMLLIGIVLPVFYLVYF [LYSMD4] | 2.2 ± 0.16 | 2.14 ± 0.17 | – | –
QYEEIALKSKAEAEALYQTKFQEL [KRT71] | 4.08 ± 0.35 | 4.18 ± 0.15 | – | –
QYNRPISDFLTLHSIIISLVEAGA [FEM1B] | 2.34 ± 0.53 | 2.36 ± 0.34 | – | –
RAFNTDHQTQLLYQASAMMVESRY [RAD51] | 2.42 ± 0.35 | 2.68 ± 0.22 | – | –
RAGHHPNQYATCRLCGRQVSRGPG [ZBED2] | 2.35 ± 0.38 | 2.67 ± 0.59 | – | –
RAISTSVCVRAHESVVKSEDFSLP [COX4I1] | 3.9 ± 0.17 | 3.79 ± 0.34 | – | –
RDGALLGCSLTADGLPLHFFIQTV [MYORG] | 2.35 ± 0.31 | 2.36 ± 0.52 | – | –
RDGGLCVNDLAVGLRRLGLHRTEG [SLC25A25] | 3.12 ± 0.16 | 2.99 ± 0.14 | – | –
RDGYGMTPLLAASVTGHTNIVEYL [FEM1A] | 2.92 ± 0.22 | 2.93 ± 0.24 | – | –
RDIQDENQLLVADVKRLGKQNARF [STX11] | 4.21 ± 0.32 | 4.44 ± 0.18 | – | –
RDVAAEAVARSPKRPAWGSRRFEA [POMT2] | 3.73 ± 0.23 | 3.94 ± 0.085 | – | –
REAMLEMLLQHQICKEVQAEQEPT [SPAG8] | 4.1 ± 0.25 | 4.15 ± 0.39 | – | –
RESWDSAKKLPPVQESQSERLQAA [ELOA2] | 5.12 ± 0.17 | 5.02 ± 0.086 | – | –
RFPLMTPQELINYVQTVDFMRTDN [KLHL13] | 2.71 ± 0.26 | 2.83 ± 0.34 | – | –

Sequence | protein stability index [1] | protein stability index [2] | protein stability index [3] | protein stability index [4]
RFYYSEDDHGDECSYTDLLPQDEG [KCNA4] | 5.07 ± 0.19 | 4.88 ± 0.27 | – | –
RGFFFSHVGWLLVRKHPAVKEKGS [SCD] | 2.31 ± 0.6 | 2.5 ± 0.17 | – | –
RGPPHGWPKLCPCLRSGIGSSQAL [MYCL] | 2.21 ± 0.65 | 2.26 ± 0.5 | – | –
RGQVGLVPKNYVVVLSDGPALHPA [NCK2] | 2.56 ± 0.29 | 2.43 ± 0.23 | – | –
RGRFGELLLLLPTLQSITWQMIEQ [HNF4A] | 2.94 ± 0.28 | 3.33 ± 0.3 | – | –
RGSETTYESSADIAGDEGTQIPAD [TAF7L] | 5.58 ± 0.12 | 5.62 ± 0.12 | – | –
RHLRSAHRRELESSGAGSSPPAAP [ZBED3] | 5.09 ± 0.36 | 5.1 ± 0.28 | – | –
RHLTSRHQEAEMAQNAVRLHYGLP [CTNNB1] | 3.71 ± 0.14 | 3.73 ± 0.25 | – | –
RIHSGEKPYGCVECGKAFSRSSIL [ZNF24] | 2.24 ± 0.31 | 2.83 ± 0.23 | – | –
RIHSGKKPYACDECAKAFSRSAIL [ZNF396] | 2.31 ± 0.4 | 2.38 ± 0.33 | – | –
RKHALERFEQEAVAVDSNLRVREL [CCDC89] | 4.21 ± 0.12 | 4.47 ± 0.21 | – | –
RLFLVEDLVDSLKLAVFMWLMTYV [RTN3] | 2.72 ± 0.65 | 2.64 ± 0.78 | – | –
RLIKELAKYEYMEEQVILTEKDLL [SAT1] | 2.34 ± 0.34 | 2.18 ± 0.25 | – | –
RLRKHQHVGDFARDLAARWKKLVL [ELOA2] | 2.23 ± 0.61 | 2.54 ± 0.9 | – | –
RLVAPTEGSLEWDILEVKRLLDHQ [WDR41] | 2.67 ± 0.46 | 2.77 ± 0.29 | – | –
RLVVQRCSGQKWMIRNWIKHARH [GALNT9] | – | – | 3.21 ± 0.92 | 2.69 ± 0.65
RMEKGEPYMSIQPAEDPDDYDDGF [SMARCE1] | 5.61 ± 0.076 | 5.54 ± 0.27 | – | –
RNTHKDLLRFAQVFSQMIHLNETV [FEM1B] | 2.74 ± 0.7 | 2.34 ± 0.48 | – | –
RPCVPPSCHGYTLPGACNIPANVS [KRT33B] | 2.79 ± 0.24 | 2.74 ± 0.17 | – | –
RPEGYNLKDEEGKLKDLSTVTSLQ [PPP2R2C] | 5.12 ± 0.23 | 5.29 ± 0.17 | – | –
RPGETGMDVTSRCTLGDPNKLPEG [KLHL20] | 5.16 ± 0.31 | 5.11 ± 0.14 | – | –
RPPGHHAQHSLMDGYCMFNHVAVA [HDAC6] | 2.4 ± 0.43 | 2.27 ± 0.23 | – | –
RQSSVTESTLYPNPYHQPYISRKY [TPRG1] | 3.44 ± 0.31 | 3.67 ± 0.23 | – | –

Sequence | protein stability index [1] | protein stability index [2] | protein stability index [3] | protein stability index [4]
RRALAPPSAGFRCCAAPGPHVALA [ANKRD9] | 1.98 ± 0.47 | 2.25 ± 0.31 | – | –
RREKAVHRLRVQQAALRAARLRHQ [NOP53] | 3.6 ± 0.41 | 3.71 ± 0.34 | – | –
RRLKTTRLKEYTIKSHSSLPPNNS [DAPK3] | 3.44 ± 0.3 | 3.61 ± 0.28 | – | –
RRLQEVLGVQTGGPGGRRAGEPGH [DYRK1B] | 4.12 ± 0.3 | 4.18 ± 0.26 | – | –
RRVLQGLEIELQSQLSMKASLENS [KRT16] | 2.8 ± 0.21 | 2.89 ± 0.4 | – | –
RSFWELIGEAAKSVKLERPVRGH [S100A14] | – | – | 2.82 ± 0.81 | 2.65 ± 0.62
RSGRLILWEAPPLGAGGGSLLPGA [NEK8] | 2.84 ± 0.43 | 3.11 ± 0.3 | – | –
RSNADYQYQLLRCNVDLLKIIQLG [CNOT7] | 2.61 ± 0.46 | 2.51 ± 0.34 | – | –
RSSHSSDSGGSDVDLDPTDGKLFP [ELF3] | 5.34 ± 0.17 | 5.26 ± 0.32 | – | –
RSSLLACILLSALGYLLLGAATNV [MFSD9] | 2.9 ± 0.34 | 3.44 ± 0.26 | – | –
RSVRRERLKEMKLLRDQFVKALED [FAM9B] | 3.22 ± 0.27 | 3.05 ± 0.57 | – | –
RTTRGLDPLFGMCEKFLQEVDFFQ [INTS4] | 2.05 ± 0.37 | 2.23 ± 0.26 | – | –
RVIACQKTAHDSNVLHVARLPNRQ [WDR41] | 3.52 ± 0.18 | 3.65 ± 0.27 | – | –
RYFSLSLMSGALAVNQKIDRESLC [PCDHGC5] | 2.03 ± 0.21 | 2.1 ± 0.28 | – | –
RYGRRTAIILSSCLLGLGSLVLIL [SLC2A12] | 5.23 ± 0.14 | 5.1 ± 0.14 | – | –
SAAAATAELLKKQEELNRKAEELD [SCAMP3] | 5.72 ± 0.16 | 5.52 ± 0.48 | – | –
SAALFYLTNSEYRSEQSVKLRRQV [ZER1] | 2.85 ± 0.57 | 2.83 ± 0.069 | – | –
SAGNAPLNEEINIASSDSEVEIVG [C18orf25] | 5.27 ± 0.31 | 5.46 ± 0.19 | – | –
SAGVPPSAPLQGAVPPTSSVPPVA [SNAP91] | 4.79 ± 0.13 | 4.82 ± 0.15 | – | –
SAMLLVTLGKVLKVIVVMRSLFID [MED27] | 2.9 ± 0.45 | 2.85 ± 0.73 | – | –
SARIVQVVTAEAVAVLKGEQEKEA [MAP2] | 4.82 ± 0.11 | 4.81 ± 0.21 | – | –
SAVEKEPARAPPEPPHNLFCAPGS [SERTAD3] | 4.95 ± 0.24 | 4.98 ± 0.078 | – | –
SCLSSQSSALSQSGGGSTSAAGIE [SPACA3] | 4.78 ± 0.13 | 4.82 ± 0.063 | – | –

Sequence | protein stability index [1] | protein stability index [2] | protein stability index [3] | protein stability index [4]
SCSSDGGIAVWNMDVSREEAPQWL [WDFY1] | 3.07 ± 0.09 | 3.08 ± 0.23 | – | –
SDAGSPSLHKHLTIRLNISDVNDN [PCDHGC5] | 3.73 ± 0.17 | 3.71 ± 0.24 | – | –
SDLSRSSRGELIPISPSTEVGGSG [MYBL2] | 5 ± 0.4 | 4.86 ± 0.34 | – | –
SEAQLTDAETSKLIYDFIEDQGGL [WAS] | 4.53 ± 0.38 | 4.62 ± 0.23 | – | –
SELDADHPGFKDNVYRKRRKYFAD [TPH1] | 4.13 ± 0.21 | 4.19 ± 0.2 | – | –
SELGDYDPDECGSDYISEFRFAPN [EPB41L3] | 2.22 ± 0.34 | 3.12 ± 0.78 | – | –
SELTRLIQRIRSEIENVKKQASNL [KRT71] | 2.09 ± 0.068 | 2.22 ± 0.21 | – | –
SEPHYGHAGTVYGGVMYISGGITH [KLHL13] | 2.17 ± 0.47 | 2.14 ± 0.17 | – | –
SFCELHLKPHLEGAAFRDHQLLEP [TRIM29] | 2.87 ± 0.14 | 2.93 ± 0.087 | – | –
SFINFFTSVLATLVVFAVLGFKAN [SLC6A17] | 4.11 ± 0.85 | 3.06 ± 0.36 | – | –
SFTQEQVADIDGQYAMTRAQRVRA [CTNNB1] | 4.62 ± 0.19 | 4.62 ± 0.14 | – | –
SGCLPPEPLFEAGDATLASDLQDW [FOXJ1] | 4.82 ± 0.36 | 4.74 ± 0.18 | – | –
SGCSSELKNRMEYALNMLLQRCN [PLK2] | – | – | 3.57 ± 0.15 | 3.77 ± 0.12
SGDCDQRFRFPSPILKVQYHPRDQ [RBBP5] | 3.8 ± 0.19 | 3.74 ± 0.27 | – | –
SGEKPYKCSDCGKAFLTKTMLIVH [ZNF649] | 3.52 ± 0.24 | 3.68 ± 0.35 | – | –
SGGSGGRGTGQLNRFVQLSGRPHL [KLHDC10] | 3.48 ± 0.28 | 3.65 ± 0.16 | – | –
SGNFERCIRLWKYALDMQQSNLEP [FEM1A] | 2.12 ± 0.12 | 2.38 ± 0.48 | – | –
SGRGTGRGGGGGGGGGAPRGRYGP [SRSF1] | 4.79 ± 0.24 | 4.83 ± 0.15 | – | –
SHKGAEELALALKGNTTLQQLDLR [LRRC45] | 3.99 ± 0.18 | 4.17 ± 0.65 | – | –
SIRLPLDAPLPGSKAKPKPPKQAQ [TBC1D10A] | 4.36 ± 0.09 | 4.72 ± 0.11 | – | –
